Experimental data: IntAct's records for PubMed 23217712

What was measured:
cg13_yeast CLN3 = cg13_yeast CLN3 (UniProt P13365)
clg1_yeast CLG1 = clg1_yeast CLG1 (UniProt P35190)
pcl2_yeast PCL2 = pcl2_yeast PCL2 (UniProt P25693)
Sequence of pcl2_yeast PCL2 (P25693 whole entry): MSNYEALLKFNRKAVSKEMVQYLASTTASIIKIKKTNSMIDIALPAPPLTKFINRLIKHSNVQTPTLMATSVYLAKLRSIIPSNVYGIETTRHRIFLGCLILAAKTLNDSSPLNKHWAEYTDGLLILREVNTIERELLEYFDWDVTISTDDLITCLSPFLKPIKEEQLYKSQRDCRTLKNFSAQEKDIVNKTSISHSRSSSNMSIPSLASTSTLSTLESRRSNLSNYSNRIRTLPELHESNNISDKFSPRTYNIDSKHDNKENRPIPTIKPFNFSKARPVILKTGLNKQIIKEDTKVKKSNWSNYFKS

Sequence of clg1_yeast CLG1 (P35190 whole entry): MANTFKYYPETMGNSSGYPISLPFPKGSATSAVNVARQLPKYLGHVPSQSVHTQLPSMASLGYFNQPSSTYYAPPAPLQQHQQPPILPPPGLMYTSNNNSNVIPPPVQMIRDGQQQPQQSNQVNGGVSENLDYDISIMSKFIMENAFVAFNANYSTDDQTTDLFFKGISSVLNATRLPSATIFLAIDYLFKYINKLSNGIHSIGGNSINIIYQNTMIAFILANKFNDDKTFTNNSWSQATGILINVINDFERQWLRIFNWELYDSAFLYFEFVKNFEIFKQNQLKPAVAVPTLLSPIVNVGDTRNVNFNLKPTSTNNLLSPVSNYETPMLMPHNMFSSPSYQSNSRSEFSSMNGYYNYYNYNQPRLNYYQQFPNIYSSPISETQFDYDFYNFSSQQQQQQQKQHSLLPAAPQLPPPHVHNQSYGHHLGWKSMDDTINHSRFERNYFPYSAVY
Sequence of cg13_yeast CLN3 (P13365 whole entry): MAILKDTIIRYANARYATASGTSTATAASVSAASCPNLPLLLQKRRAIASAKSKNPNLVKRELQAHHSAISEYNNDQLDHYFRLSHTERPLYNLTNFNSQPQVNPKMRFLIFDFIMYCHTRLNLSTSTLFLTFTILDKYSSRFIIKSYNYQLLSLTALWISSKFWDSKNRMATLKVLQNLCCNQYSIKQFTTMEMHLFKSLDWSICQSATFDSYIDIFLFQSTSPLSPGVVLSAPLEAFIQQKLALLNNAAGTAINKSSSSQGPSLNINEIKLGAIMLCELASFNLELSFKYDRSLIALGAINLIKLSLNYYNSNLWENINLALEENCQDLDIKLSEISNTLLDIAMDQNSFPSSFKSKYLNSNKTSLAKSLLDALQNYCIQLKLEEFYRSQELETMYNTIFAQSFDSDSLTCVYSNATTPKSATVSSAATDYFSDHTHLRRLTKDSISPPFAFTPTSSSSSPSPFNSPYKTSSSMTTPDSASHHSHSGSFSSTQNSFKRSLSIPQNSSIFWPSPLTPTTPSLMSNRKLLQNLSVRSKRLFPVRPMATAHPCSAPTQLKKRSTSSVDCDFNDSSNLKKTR

effect of a mutation on the interaction (cg13_yeast CLN3)	effect of a mutation on the interaction (clg1_yeast CLG1)	effect of a mutation on the interaction (pcl2_yeast PCL2)	Substance
disrupting interaction strength	increasing interaction strength	increasing interaction strength	Heat shock protein SSA1 (Saccharomyces cerevisiae), P10591 T36A
	decreasing interaction strength	decreasing interaction strength	Heat shock protein SSA1 (Saccharomyces cerevisiae), P10591 T36E
